Key:
[1] = target: T1, SARS-CoV-2 receptor-binding domain (RBD) (SARS-CoV-2, UniProt P0DTC2); test: SPR
[2] = target: T1, SARS-CoV-2 receptor-binding domain (RBD); test: SPR; remark: listed apart in the source

Binder	koff [1]	Kd [2]
Nb-C2-136 nanobody (VHH) VHH: EVQLQESGGGLVQPGGSLRLSCAASGFTFSSYAMGWYRQAPGKEREWVCAISGSGGSTYYADSVKGRFTCSRDNSKNTLYLQMNSLKPEDTAVYYCARYGGPYDPTDSTYAFDYWGQGTQVTVSS	0.032 s⁻¹	382 nM
Nb-C4-240 nanobody (VHH) VHH: EVQLQESGGGLVQPGGSLRLSCAASGFTFSSYAMGWYRQAPGKEREWVCAISGSGGSTYYADSVKGRFTCSRDNSKNTLYLQMNSLKPEDTAVYYCARVVSYYDQTGFVYWQSYDYWGQGTQVTVSS	0.969 s⁻¹	1060 nM
Nb-C4-225 nanobody (VHH) VHH: EVQLQESGGGLVQPGGSLRLSCAASGFTFSSYAMGWYRQAPGKEREWVCAISGSGGSTYYADSVKGRFTCSRDNSKNTLYLQMNSLKPEDTAVYYCARGSFYYTYGGSVGFDAFDYWGQGTQVTVSS	0.0057 s⁻¹	143 nM
LM18 nanobody (VHH) VHH: EVQLQESGGGLVQPGGSLRLSCAASGFTFSSYALGWYRQAPGKEREWVCAISGSGGSTYYADSVKGRFTCSRDNSKNTLYLQMNSLKPEDTAVYYCARVYQFYGARDYGYPYDFDYWGQGTQVTVSS	0.0944 s⁻¹	391 nM
Nb-C4-255 nanobody (VHH) VHH: EVQLQESGGGLVQPGGSLRLSCAASGFTFSSYAMGWYRQAPGKEREWVCAISGSGGSTYYADSVKGRFTCSRDNSKNTLYLQMNSLKPEDTAVYYCARQAWYYSPYGGPEFEAFDYWGQGTQVTVSS	0.295 s⁻¹	2950 nM
